The target in the assay is CCR3 (UniProt P51677).
CCR3, sequence (P51677 whole entry): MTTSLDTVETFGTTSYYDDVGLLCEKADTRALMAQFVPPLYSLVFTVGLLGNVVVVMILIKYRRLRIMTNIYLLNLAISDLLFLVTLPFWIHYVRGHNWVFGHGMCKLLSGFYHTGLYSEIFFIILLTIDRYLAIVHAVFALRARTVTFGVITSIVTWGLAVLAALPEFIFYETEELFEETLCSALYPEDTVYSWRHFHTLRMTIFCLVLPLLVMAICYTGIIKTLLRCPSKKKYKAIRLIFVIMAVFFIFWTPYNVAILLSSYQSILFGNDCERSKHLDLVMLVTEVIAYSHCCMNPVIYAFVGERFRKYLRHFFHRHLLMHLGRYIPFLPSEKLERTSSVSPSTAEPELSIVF

B1: CCL18-6His (ligand)
chain: AQVGTNKELCCLVYTSWQIPQKFIVDYSETSPQCPKPGVILLTKRGRQICADPNKKWVQKYISDLKLNA
For B1, the IC50 for inhibition of migration of L1.2/CCR3 transfectants to 1 nM CCL11 was found to be 0.168 µM.

For the origin of these results see publication PMC3741163.
